We go through five molecules from patent publication US20240317847A1 (Bayer, published 2024).

As a reminder, the Kd is the free concentration of one partner at which half of the binding sites on the other are occupied at equilibrium, for simple one-to-one binding. Read a low Kd as tighter binding.

Changes are numbered by the printed parent chain. A value given as a limit tells only on which side of the number the result lay.

The chains are these.
T1: human IL-11 (human, UniProt P20809 22-199)
T1 sequence: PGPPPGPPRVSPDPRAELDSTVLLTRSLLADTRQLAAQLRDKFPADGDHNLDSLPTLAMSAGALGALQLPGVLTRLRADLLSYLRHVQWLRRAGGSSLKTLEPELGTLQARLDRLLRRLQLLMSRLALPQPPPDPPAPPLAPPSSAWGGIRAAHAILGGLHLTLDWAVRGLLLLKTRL

T2: murine IL-11 (mouse, UniProt P47873 22-199)
T2 sequence: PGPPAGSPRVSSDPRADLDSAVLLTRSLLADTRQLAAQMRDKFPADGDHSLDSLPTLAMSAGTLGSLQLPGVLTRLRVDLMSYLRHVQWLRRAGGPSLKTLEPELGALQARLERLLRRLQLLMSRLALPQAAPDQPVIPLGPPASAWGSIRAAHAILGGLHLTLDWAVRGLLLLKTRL

B1: TPP-31277 (antibody, IgG4, V domains shown)
VH: EVQLLESGGGLVQPGGSLRLSCAASGFTFSHYDMNWLRQAPGKGLEWVGVISYDGSNKFYADFVKGRFTISRDNSKNTLYLQMNSLRAEDTAVYYCARTPGSHFDYWGQGTLVTVSS
VL: QSVLTQPPSASGTPGQRVTISCSGSSSNIGSNAVNWYQQLPGTAPKLLIYYDDLLPSGVPDRFSGSKSGTSASLAISGLRSEDEADYYCSAWDDSLNGVVFGGGTKLTVL
notes: hIgG4 SPLE, lambda
B2: TPP-31284 (antibody, IgG4, V domains shown)
VH: B1 VH
VL: B1 VL with S31N, L55R
notes: hIgG4 SPLE, lambda
B3: TPP-31278 (antibody, IgG4, V domains shown)
VH: B1 VH
VL: B1 VL with S31N, A33Y
notes: hIgG4 SPLE, lambda
B4: TPP-31292 (antibody, IgG4, V domains shown)
VH: B1 VH with N35H
VL: B1 VL with S31N
notes: hIgG4 SPLE, lambda
B5: TPP-31285 (antibody, IgG4, V domains shown)
VH: B1 VH
VL: B1 VL with S31N, S90A
notes: hIgG4 SPLE, lambda

One experiment has as its target T1, human IL-11. Description: cell-based or functional assay.
Consider B1, for which the “IC50, RGA 1” value came out at 211 nM and the “IC50, RGA 2” value came out at 47 nM.
Taken in the same sequence, the figures for B2 were 101 nM and 131 nM.
In the same order, the values of B3 are 22 nM and 2.36 nM.
In the case of B4, the “IC50, RGA 1” value was 234 nM and the “IC50, RGA 2” value came out at 107 nM.
Taken in the same sequence, the figures for B5 were 50 nM and 16 nM.

The target of the next experiment is T2, murine IL-11. Kind of experiment: cell-based or functional assay.
With B1, the “IC50, RGA 1” value came out at 43 nM and the “IC50, RGA 2” value was found to be 27 nM.
B2: the “IC50, RGA 1” value turned out to be 65 nM and the “IC50, RGA 2” value came to 17 nM.
As for B3, the “IC50, RGA 1” value is 0.13 nM and the “IC50, RGA 2” value amounted to 0.08 nM.
In the same order, the values of B4 are 52 nM and 39 nM.
In the same order, the values of B5 are 111 nM and 23 nM.

In a further experiment the target is T1, human IL-11. Kind of experiment: cell-based or functional assay. The source holds these as a separate data set.
With B1, the “RGA potency (mean)” value is under 170 nM.
Same read-out and setting: under B2 stands under 170 nM; under B3, under 170 nM; under B4, under 170 nM.
On the same count and under the same terms, under B5 stands under 170 nM.

The target in another experiment is T2, murine IL-11. Description: cell-based or functional assay. This is another data set of the same source.
Take B1: the “RGA potency (mean)” value is under 170 nM.
Still for that read-out and setting: under B2 stands under 170 nM.
On the same count and under the same terms, under B3 stands under 170 nM.
On the same count and under the same terms, under B4 stands under 170 nM.
For B5, the “RGA potency (mean)” value is under 170 nM.

The target in a further experiment is T1, human IL-11. Kind of experiment: SPR; limit told of 12 single-site germlining mutants; antigen not given, SPR run on human and mouse IL-11. (SPR reads the build-up and loss of mass on a sensor chip optically.)
As for B1, the Kd is under 19 nM.
The molecule B2 displayed a dissociation constant (Kd) of under 19 nM.
Still for that read-out and setting: the same measure for B3: under 19 nM; for B4: under 19 nM.
With B5, the equilibrium dissociation constant (Kd) is under 19 nM.

For a further experiment, the target named is T2, murine IL-11. The experiment is described as above.
For B1, the Kd is under 19 nM.
Same read-out and setting: the same measure for B2: under 19 nM; for B3: under 19 nM.
On the same count and under the same terms, under B4 stands under 19 nM; under B5, under 19 nM.
